The values that follow come from PMC11042539 (Journal of the American Chemical Society, 2011).

Data set [1] has as its target Ag85c (Mycobacterium tuberculosis, UniProt P9WQN9). In words: biochemical.
Data set [2] concerns OC[C@H]1O[C@H](O[C@H]2O[C@H](CO)[C@@H](O)[C@H](O)[C@H]2O)[C@H](O)[C@@H](O)[C@@H]1O. As to the kind of experiment: purified protein.

Where two headings read alike, the source gives them in different places.

Chain of Ag85c (P9WQN9 46-340 limits assumed): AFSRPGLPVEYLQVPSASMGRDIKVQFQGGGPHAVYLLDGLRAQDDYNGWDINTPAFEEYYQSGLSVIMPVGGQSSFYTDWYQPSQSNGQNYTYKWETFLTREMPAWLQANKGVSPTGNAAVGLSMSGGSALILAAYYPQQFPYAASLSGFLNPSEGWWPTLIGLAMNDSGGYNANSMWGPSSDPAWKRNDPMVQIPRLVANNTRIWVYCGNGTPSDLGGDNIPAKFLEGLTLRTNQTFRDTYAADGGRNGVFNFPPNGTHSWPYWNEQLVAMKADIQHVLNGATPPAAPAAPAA

Turning to `CCCCCC(=O)OC[C@H]1O[C@H](O[C@H]2O[C@H](COC(=O)CCCCC)[C@@H](O)[C@H](O)[C@H]2O)[C@H](O)[C@@H](O)[C@@H]1O` [2b, 6,6’-di-hexanoyltrehalose], the inhibition constant (Ki) (in general, a measure of affinity in units of concentration, obtained from inhibition or displacement) in data set [1] is 355 ± 106 µM.

As for “Ag85a (Mycobacterium tuberculosis H37Rv)”, in data set [2], the Km – broadly, the substrate concentration at which the rate is half of its maximum – amounted to 175 µM; the turnover number (kcat) (commonly the maximal rate divided by the concentration of active sites) is 0.014 s⁻¹; the specificity constant (kcat/Km) – broadly, the turnover number divided by the Michaelis constant – was determined as 82 M⁻¹ s⁻¹.

For the compound “Ag85b (Mycobacterium tuberculosis H37Rv)”, in data set [2], the Km was 112 µM, the catalytic constant (kcat) stood at 0.003 s⁻¹ and the kcat/Km came to 30 M⁻¹ s⁻¹.

Turning to “Ag85c (Mycobacterium tuberculosis H37Rv)”, in data set [2] (Ser-His-Asp catalytic triad at the trehalose binding site), the Michaelis-Menten constant (Km) was found to be 16.9 ± 5.3 µM.
